Results published in the Human Domainome abundance scans (Beltran et al. 2025).
± gives the uncertainty stated by the source.

B1: Homeobox protein cut-like 2, residues 895 to 963; numbered along this chain, O14529 (parent)
chain: EVDTLELTRQVKEKLAKNGICQRIFGEKVLGLSQGSVSDMLSRPKPWSKLTQKGREPFIRMQLWLSDQL

Variants of: B1
Experiment: abundance fitness (aPCA) (normalised: wild type 0, dead -1); higher = more abundant; growth selection in yeast, the domain comes from the species named
Conditions: Homo sapiens

Abundance fitness of substitutions, site by site:
D39: R -0.456 ± 0.16, C -0.15 ± 0.26, M -0.178 ± 0.097, N -0.188 ± 0.15, Q 0.005 ± 0.096, E 0.029 ± 0.31, A -0.063 ± 0.09, Y -0.324 ± 0.11, K -0.441 ± 0.17, S -0.073 ± 0.057, I -0.26 ± 0.13, G 0.026 ± 0.18, V -0.389 ± 0.14, W -0.328 ± 0.36, P -0.184 ± 0.068, H -0.279 ± 0.12, T -0.17 ± 0.11
G54: L -0.011 ± 0.029, A 0.084 ± 0.046, Y -0.165 ± 0.059, F -0.048 ± 0.045, P -0.581 ± 0.041, T -0.084 ± 0.034, C -0.007 ± 0.043, K -0.461 ± 0.062, I 0.046 ± 0.049, W -0.097 ± 0.043, S -0.092 ± 0.032, H -0.215 ± 0.074, D 0.201 ± 0.24, M 0.004 ± 0.039
R55: D -0.954 ± 0.094, N -0.671 ± 0.088, A -0.511 ± 0.039, S -0.559 ± 0.053, K 0.052 ± 0.047, V -0.487 ± 0.031, C -0.625 ± 0.12, F -0.569 ± 0.06, I -0.684 ± 0.066, H -0.654 ± 0.078, G -0.674 ± 0.06, P -0.814 ± 0.07, Q -0.303 ± 0.042, T -0.359 ± 0.058, Y -0.76 ± 0.087, M -0.385 ± 0.044, L -0.486 ± 0.029
R43: G -0.233 ± 0.042, C -0.14 ± 0.072, S 0.064 ± 0.029, N -0.03 ± 0.078, Y 0.017 ± 0.078, H 0.004 ± 0.048, A -0.034 ± 0.029, P -0.357 ± 0.027, I -0.329 ± 0.066, T -0.162 ± 0.036, E -0.124 ± 0.071, D 0.013 ± 0.08, F -0.101 ± 0.061, V -0.23 ± 0.037, M -0.224 ± 0.047, K -0.047 ± 0.07, W -0.191 ± 0.049, Q -0.066 ± 0.044
K53: P -0.282 ± 0.034, Y -0.061 ± 0.14, W -0.298 ± 0.061, A -0.014 ± 0.035, I -0.037 ± 0.27, S 0.04 ± 0.047, D -0.3 ± 0.12, Q -0.146 ± 0.035, V -0.259 ± 0.082, H -0.194 ± 0.063, T -0.166 ± 0.036, M -0.373 ± 0.098, C -0.405 ± 0.16, L -0.101 ± 0.051, G -0.309 ± 0.045, R -0.09 ± 0.028, N -0.233 ± 0.095, E -0.017 ± 0.05
V37: H -0.378 ± 0.048, Y -0.257 ± 0.06, G -0.206 ± 0.048, A -0.139 ± 0.038, W -0.061 ± 0.038, C -0.031 ± 0.038, I -0.156 ± 0.046, R -0.223 ± 0.032, P -0.311 ± 0.028, L 0.016 ± 0.027, T 0 ± 0.043, K -0.232 ± 0.069, D -0.397 ± 0.093, S -0.232 ± 0.032, E -0.436 ± 0.087, M -0.227 ± 0.051, F 0.01 ± 0.042, N -0.435 ± 0.1
K49: Q 0.034 ± 0.034, P -0.731 ± 0.033, Y -0.301 ± 0.047, H 0.009 ± 0.039, T -0.035 ± 0.033, N -0.16 ± 0.051, F -0.281 ± 0.044, L 0.002 ± 0.028, S -0.079 ± 0.03, I -0.112 ± 0.042
Q52: H -0.218 ± 0.079, N -0.215 ± 0.12, Y -0.073 ± 0.15, V -0.034 ± 0.041, D 0.017 ± 0.12, E -0.016 ± 0.067, L -0.025 ± 0.032, I -0.06 ± 0.086, M -0.106 ± 0.044, K 0.094 ± 0.084, C -0.038 ± 0.08, R 0.015 ± 0.032, G -0.18 ± 0.05, T 0.046 ± 0.042, P 0.01 ± 0.029, A 0.042 ± 0.03, W -0.187 ± 0.052
K45: F -0.243 ± 0.035, Y -0.265 ± 0.066, H -0.288 ± 0.083, W -0.313 ± 0.24, P -0.073 ± 0.16, Q -0.132 ± 0.059, E -0.173 ± 0.074, C -0.229 ± 0.24, L -0.009 ± 0.025, D -0.108 ± 0.068, M -0.053 ± 0.026, V -0.083 ± 0.034, A -0.129 ± 0.11, T -0.149 ± 0.055, R 0.128 ± 0.14
S48: N -0.055 ± 0.051, H -0.011 ± 0.04, M -0.323 ± 0.048, T -0.085 ± 0.042, I -0.223 ± 0.047, V -0.259 ± 0.035, Q -0.085 ± 0.038, R -0.13 ± 0.05, L -0.191 ± 0.027, P -0.229 ± 0.034, A -0.064 ± 0.045, W -0.387 ± 0.079, E -0.103 ± 0.055, C -0.003 ± 0.075, K -0.088 ± 0.042, Y -0.084 ± 0.062, F -0.19 ± 0.038
S36: V 0.064 ± 0.035, Y -0.062 ± 0.043, T 0.002 ± 0.028, W -0.057 ± 0.064
P44: V -0.161 ± 0.035, A -0.103 ± 0.038, Q -0.135 ± 0.044, F -0.105 ± 0.045, T -0.101 ± 0.043, H -0.241 ± 0.05, D -0.429 ± 0.099, I -0.113 ± 0.056, R -0.03 ± 0.042, G -0.261 ± 0.058, C -0.153 ± 0.054, K -0.134 ± 0.075, N -0.385 ± 0.11, S -0.171 ± 0.036, E -0.665 ± 0.075, W -0.103 ± 0.058, M -0.196 ± 0.05, Y -0.041 ± 0.057
T51: Q -0.247 ± 0.04, I -0.007 ± 0.053, P -0.355 ± 0.035, N -0.082 ± 0.048, G -0.145 ± 0.14, E -0.403 ± 0.056, W -0.033 ± 0.12, H -0.235 ± 0.048, C -0.375 ± 0.26, R -0.109 ± 0.063, A -0.1 ± 0.039, K -0.115 ± 0.037, L -0.082 ± 0.033, D 0.117 ± 0.062, Y -0.011 ± 0.056, F -0.005 ± 0.059, V -0.115 ± 0.048
W47: R -0.793 ± 0.077, A -0.81 ± 0.06, D -0.772 ± 0.088, Q -0.84 ± 0.058, G -1.01 ± 0.14, Y -0.554 ± 0.063, P -0.964 ± 0.057, N -0.895 ± 0.14, E -1.08 ± 0.14, T -0.654 ± 0.062, F -0.338 ± 0.041, V -0.808 ± 0.044, L -0.488 ± 0.028, H -0.894 ± 0.063, C -1.01 ± 0.15, K -1.28 ± 0.16, M -0.681 ± 0.053
E56: N -0.348 ± 0.14, R -0.157 ± 0.04, M -0.213 ± 0.059, S -0.203 ± 0.036, I 0.096 ± 0.095, K -0.156 ± 0.091, Q -0.06 ± 0.05, D -0.186 ± 0.12, F -0.362 ± 0.066, C -0.843 ± 0.069, L -0.211 ± 0.032, V -0.182 ± 0.049, A -0.08 ± 0.041, P -0.605 ± 0.047, H -0.446 ± 0.077, G -0.245 ± 0.041, T -0.22 ± 0.046
L41: A -0.223 ± 0.079, I -0.315 ± 0.056, V -0.518 ± 0.092, T -0.505 ± 0.035, R -0.226 ± 0.051, E -0.41 ± 0.11, M -0.214 ± 0.032, G -0.107 ± 0.11, K -0.193 ± 0.032, P -0.257 ± 0.032, Q -0.303 ± 0.037, D -0.353 ± 0.18, S -0.234 ± 0.032, Y -0.418 ± 0.053, H -0.37 ± 0.05, N -0.481 ± 0.067, C -0.452 ± 0.13, W -0.25 ± 0.055, F -0.088 ± 0.046
S38: D 0.007 ± 0.048, N 0.012 ± 0.027, Y -0.008 ± 0.32, H 0.005 ± 0.03, T 0.006 ± 0.026, F -0.221 ± 0.26, Q 0.03 ± 0.025, G -0.097 ± 0.033, A 0.015 ± 0.028, K 0.06 ± 0.024, P -0.209 ± 0.026, E 0.106 ± 0.036, R 0.024 ± 0.028
S42: R -0.054 ± 0.1, Y -0.075 ± 0.04, P -0.159 ± 0.05, M 0.012 ± 0.037, E 0.059 ± 0.095, Q -0.092 ± 0.046, K 0.009 ± 0.044, H -0.007 ± 0.045, G -0.272 ± 0.28, L -0.086 ± 0.026, N -0.095 ± 0.057, F -0.167 ± 0.031, A -0.014 ± 0.11, C -0.004 ± 0.092, D 0.039 ± 0.07, T -0.169 ± 0.089, V -0.146 ± 0.036
M40: W 0.048 ± 0.046, C -0.045 ± 0.082, I 0.007 ± 0.08, E -0.475 ± 0.1, Y -0.236 ± 0.11, D -0.059 ± 0.13, V -0.046 ± 0.07, T -0.224 ± 0.049, A -0.169 ± 0.046, P -0.251 ± 0.037, S -0.201 ± 0.038, G -0.298 ± 0.077, F -0.189 ± 0.083, R -0.145 ± 0.038, K -0.02 ± 0.074, H -0.287 ± 0.081, L 0.136 ± 0.036, N -0.473 ± 0.21, Q -0.29 ± 0.063
P46: L 0.026 ± 0.032, F 0.039 ± 0.032, W 0.044 ± 0.085, N -0.223 ± 0.049, R -0.057 ± 0.08, Y -0.078 ± 0.035, V -0.415 ± 0.29, T -0.08 ± 0.036, I -0.071 ± 0.046, A -0.236 ± 0.28, H -0.077 ± 0.05, Q -0.053 ± 0.082, C -0.319 ± 0.079, M -0.214 ± 0.06, S -0.093 ± 0.027, K -0.095 ± 0.071
L50: I -0.437 ± 0.07, C -0.488 ± 0.092, W -0.12 ± 0.081, G -0.652 ± 0.085, P -1.04 ± 0.069, A -0.748 ± 0.049, D -0.607 ± 0.11, E -1.11 ± 0.11, R -1.11 ± 0.094, T -0.808 ± 0.063, S -0.865 ± 0.052, F -0.315 ± 0.052, Q -0.874 ± 0.068, Y -0.191 ± 0.066, V -0.522 ± 0.045, K -1.3 ± 0.17
